Results on 4 molecules are retold here after paper PMC2396507, “Analysis of the DNA Binding Activity of BRCA1 and Its Modulation by the Tumour Suppressor p53”.

Data set [1] concerns the target T1, BRCA1 230-534 (UniProt P38398 230-534). The data set is described as follows: competition EMSA; 0.5 uM labelled linear duplex, 5 uM P1; 50 mM NaCl, 10 mM Tris-HCl pH 8.0, 0.5 mM EDTA, 1 mM DTT, 5% glycerol; 6% native PAGE in TAE at 4 C; incubation temperature not stated. The settings on record: protein: recombinant, tags: none stated (expressed from pET22b), label: 5'-32P when used as probe.

Data set [2] deals with T2, p53 (GST fusion) (UniProt P04637 1-393). Briefly: EMSA; 100-500 nM GST-p53, no BRCA1; no binding at 200 nM (lane 8); 50 mM NaCl, 10 mM Tris-HCl pH 8.0, 0.5 mM EDTA, 1 mM DTT, 5% glycerol; 6% native PAGE in TAE at 4 C; incubation temperature not stated. The settings on record: protein: recombinant; tags: N-terminal GST, uncleaved (pGEX2TKp53); chain copies: 4; label: 5'-32P when used as probe; four-way junction.

Data set [3] has as its target T2, p53 (GST fusion). The data set is described as follows: EMSA; 100-500 nM GST-p53, no BRCA1; 50 mM NaCl, 10 mM Tris-HCl pH 8.0, 0.5 mM EDTA, 1 mM DTT, 5% glycerol; 6% native PAGE in TAE at 4 C; incubation temperature not stated. The settings on record: protein: recombinant, tags: N-terminal GST, uncleaved (pGEX2TKp53), chain copies: 4, label: 5'-32P when used as probe.

In data set [4] the target is T1, BRCA1 230-534. The data set is described as follows: EMSA; 1-5 uM P1, 0.5 uM DNA; 50 mM NaCl, 10 mM Tris-HCl pH 8.0, 0.5 mM EDTA, 1 mM DTT, 5% glycerol; 6% native PAGE in TAE at 4 C; incubation temperature not stated. Conditions: protein: recombinant; tags: none stated (expressed from pET22b); label: 5'-32P when used as probe; duplex.
The mark [5] stands for this setting: duplex with C:C mismatches (design after triple lesions).

T2 sequence (P04637 whole entry, the tested form may be a part): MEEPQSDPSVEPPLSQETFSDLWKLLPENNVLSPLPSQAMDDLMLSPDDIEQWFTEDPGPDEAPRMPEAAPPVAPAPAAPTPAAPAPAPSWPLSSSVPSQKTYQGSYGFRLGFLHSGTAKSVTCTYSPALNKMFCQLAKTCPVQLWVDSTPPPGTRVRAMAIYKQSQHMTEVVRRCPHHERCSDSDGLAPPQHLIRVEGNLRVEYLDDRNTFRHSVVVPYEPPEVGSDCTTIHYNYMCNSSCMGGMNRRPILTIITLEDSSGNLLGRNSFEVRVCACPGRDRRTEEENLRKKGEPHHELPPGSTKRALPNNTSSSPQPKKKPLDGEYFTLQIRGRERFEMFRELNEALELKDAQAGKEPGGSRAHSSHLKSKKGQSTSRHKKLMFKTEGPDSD
T1 sequence (P38398 230-534): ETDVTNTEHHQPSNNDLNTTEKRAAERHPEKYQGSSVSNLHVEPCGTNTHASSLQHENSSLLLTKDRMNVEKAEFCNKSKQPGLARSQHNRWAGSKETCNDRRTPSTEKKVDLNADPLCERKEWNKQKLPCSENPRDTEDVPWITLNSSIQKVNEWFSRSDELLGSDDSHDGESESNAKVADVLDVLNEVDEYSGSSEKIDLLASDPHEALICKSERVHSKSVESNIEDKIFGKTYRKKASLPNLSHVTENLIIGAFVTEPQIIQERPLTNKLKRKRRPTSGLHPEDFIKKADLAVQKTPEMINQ

B1: four-way junction DNA (structured_DNA)
DNA 1: AGATCTGGCGTTAGGTGATACCGATGCATC
DNA 2: CATGCATCGGTATCAGGCTTACGACTAGTG
DNA 3: CACTAGTCGTAAGCCACTCGTGCTGAATTC
DNA 4: GAATTCAGCACGAGTCCTAACGCCAGATCT
Take B1: the binding signal with BRCA1 230-534 [1] (four-way junction) was 91 % reduction of P1 bound to labelled linear duplex at equimolar competitor. The binding result with p53 (GST fusion) [2] is given as “binds”.

B2: C:C mismatch DNA (dsDNA)
DNA 1: CCCTCGGAGCACTGCACAACCCCTGGCCGCCG
DNA 2: CGGCGGCCAGCGGTTCTGCACTGCTCCGAGGG
With B2, the binding result with p53 (GST fusion) [3] (setting [5]) is on record as “no binding”. The binding signal in the data set with BRCA1 230-534 [1] (setting [5]) is 70 % reduction of P1 bound to labelled linear duplex at equimolar competitor.

B3: linear duplex DNA (dsDNA)
DNA 1: CCCTCGGAGCACTGCACAACCCCTGGCCGCCG
DNA 2: CGGCGGCCAGGGGTTGTGCAGTGCTCCGAGGG
B3: the binding result in the data set with BRCA1 230-534 [4] is “binds”.

B4: bulge containing DNA (dsDNA)
DNA 1: CACGCTAAGTCCGATGCGTGAGATCCGC
DNA 2: GCGGATCTCACGCGTATCGGACTTAGCGTG
In the case of B4, the binding result with p53 (GST fusion) [3] (duplex with bulge) is given as “no binding”. Moreover, the binding signal with BRCA1 230-534 [1] (duplex with bulge) was 65 % reduction of P1 bound to labelled linear duplex at equimolar competitor.
